According to patent publication EP4703384A1 (Chia Tai Tianqing Pharmaceutical Group Co., Ltd., dated 2026):

Key:
T cell surface CD3 [1] = target: T1, T cell surface CD3 (human, UniProt P07766 23-207; P04234 22-171; P09693 23-182); assay: FACS on human CD3+ T cells
T1 construct: CD3 is a complex of several chains; also called CD3^+ T cells

T cell surface CD3 [2] = target: T1, T cell surface CD3; assay: cell-based or functional assay
human GPRC5D protein [3] = target: T2, human GPRC5D protein (human, UniProt Q9NZD1 1-345); assay: FACS on CHO-K1-hGPRC5D^hi cells
T2 construct: also called hGPRC5D; CHO-K1-hGPRC5D^hi

GPRC5A = target: T3, GPRC5A (human, UniProt Q8NFJ5 1-357); assay: FACS on CHO-K1-GPRC5A cells
T3 construct: Full length on CHO-K1 cells; also called RAIG1; Human GPRC5A

mouse GPRC5D = target: T4, mouse GPRC5D (mouse, UniProt Q9JIL6 1-344); assay: FACS on CHO-K1-murineGPRC5D cells
T4 construct: Full length, on stably transfected CHO-K1 cells; also called murineGPRC5D; CHO-K1-murineGPRC5D
T4 sequence: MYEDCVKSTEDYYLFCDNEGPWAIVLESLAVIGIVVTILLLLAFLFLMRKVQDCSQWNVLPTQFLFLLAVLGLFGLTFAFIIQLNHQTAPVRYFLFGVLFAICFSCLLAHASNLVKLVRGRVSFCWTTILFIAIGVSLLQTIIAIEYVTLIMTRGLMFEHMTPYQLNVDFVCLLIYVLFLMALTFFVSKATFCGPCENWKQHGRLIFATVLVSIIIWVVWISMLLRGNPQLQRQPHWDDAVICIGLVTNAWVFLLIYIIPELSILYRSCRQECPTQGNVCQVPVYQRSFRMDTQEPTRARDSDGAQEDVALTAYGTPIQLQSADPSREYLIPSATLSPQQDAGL

GPRC5C = target: T5, GPRC5C (human, UniProt Q9NQ84 24-441); assay: FACS on CHO-K1-GPRC5C cells
T5 construct: Full length on CHO-K1 cells; also called RAIG3; Human GPRC5C

monkey GPRC5D = target: T6, monkey GPRC5D (monkey, UniProt Q9NZD1 1-343 (human entry)); assay: FACS on CHO-K1-cynoGPRC5D cells
T6 construct: Full length, on stably transfected CHO-K1 cells; also called cynoGPRC5D; CHO-K1-cynoGPRC5D
T6 chain: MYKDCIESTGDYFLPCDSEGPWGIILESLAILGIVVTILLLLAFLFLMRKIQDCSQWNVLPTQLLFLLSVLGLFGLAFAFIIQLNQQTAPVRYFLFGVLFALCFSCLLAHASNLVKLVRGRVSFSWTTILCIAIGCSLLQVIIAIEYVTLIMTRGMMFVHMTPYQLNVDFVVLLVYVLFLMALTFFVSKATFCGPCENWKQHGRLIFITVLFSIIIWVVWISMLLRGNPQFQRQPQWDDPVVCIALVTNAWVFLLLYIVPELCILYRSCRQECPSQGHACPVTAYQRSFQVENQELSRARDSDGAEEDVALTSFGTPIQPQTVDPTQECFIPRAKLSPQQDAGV

GPRC5B = target: T7, GPRC5B (human, UniProt Q9NZH0 29-403); assay: FACS on CHO-K1-GPRC5B cells
T7 construct: Full length on CHO-K1 cells; also called RAIG2; Human GPRC5B

human GPRC5D protein [4] = target: T2, human GPRC5D protein; assay: FACS on NCI-H929 cells

T1 sequence (P07766 23-207 limits assumed, chain 1 of 3): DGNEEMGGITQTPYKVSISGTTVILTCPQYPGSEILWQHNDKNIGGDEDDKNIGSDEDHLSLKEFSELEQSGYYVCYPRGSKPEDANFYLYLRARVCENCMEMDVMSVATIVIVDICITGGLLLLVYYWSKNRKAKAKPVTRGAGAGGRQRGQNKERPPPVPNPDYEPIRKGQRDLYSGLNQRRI
T1 sequence (P04234 22-171 limits assumed, chain 2 of 3): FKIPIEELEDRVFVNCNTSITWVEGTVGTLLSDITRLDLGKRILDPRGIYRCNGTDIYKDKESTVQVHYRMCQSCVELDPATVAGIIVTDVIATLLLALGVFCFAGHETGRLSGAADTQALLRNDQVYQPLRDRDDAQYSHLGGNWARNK
T1 sequence (P09693 23-182 limits assumed, chain 3 of 3): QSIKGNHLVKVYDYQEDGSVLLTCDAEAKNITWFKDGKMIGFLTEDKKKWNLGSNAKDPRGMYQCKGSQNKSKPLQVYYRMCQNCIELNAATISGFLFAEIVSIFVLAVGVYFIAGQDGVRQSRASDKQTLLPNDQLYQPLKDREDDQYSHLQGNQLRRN
T5 sequence (Q9NQ84 24-441 limits assumed): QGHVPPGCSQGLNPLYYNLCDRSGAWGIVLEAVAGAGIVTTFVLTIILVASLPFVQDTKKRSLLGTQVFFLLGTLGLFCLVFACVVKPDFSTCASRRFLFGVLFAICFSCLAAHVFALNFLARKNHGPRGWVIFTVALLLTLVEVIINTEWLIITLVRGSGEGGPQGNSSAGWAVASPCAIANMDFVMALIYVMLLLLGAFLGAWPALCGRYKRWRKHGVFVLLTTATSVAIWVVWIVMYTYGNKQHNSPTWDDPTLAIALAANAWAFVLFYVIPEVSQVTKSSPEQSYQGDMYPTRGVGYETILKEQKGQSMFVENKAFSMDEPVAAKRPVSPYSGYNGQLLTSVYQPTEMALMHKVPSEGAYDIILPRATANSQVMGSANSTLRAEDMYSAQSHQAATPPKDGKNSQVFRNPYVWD
T2 sequence (Q9NZD1 whole entry): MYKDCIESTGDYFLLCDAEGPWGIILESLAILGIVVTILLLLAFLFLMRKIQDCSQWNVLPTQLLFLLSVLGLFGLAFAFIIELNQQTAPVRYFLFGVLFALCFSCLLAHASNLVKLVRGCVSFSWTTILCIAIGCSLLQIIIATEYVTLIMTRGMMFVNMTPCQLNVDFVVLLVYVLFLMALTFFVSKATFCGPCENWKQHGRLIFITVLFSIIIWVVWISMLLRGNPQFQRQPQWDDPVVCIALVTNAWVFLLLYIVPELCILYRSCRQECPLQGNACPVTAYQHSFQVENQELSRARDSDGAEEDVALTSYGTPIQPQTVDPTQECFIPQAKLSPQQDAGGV
T3 sequence (Q8NFJ5 whole entry): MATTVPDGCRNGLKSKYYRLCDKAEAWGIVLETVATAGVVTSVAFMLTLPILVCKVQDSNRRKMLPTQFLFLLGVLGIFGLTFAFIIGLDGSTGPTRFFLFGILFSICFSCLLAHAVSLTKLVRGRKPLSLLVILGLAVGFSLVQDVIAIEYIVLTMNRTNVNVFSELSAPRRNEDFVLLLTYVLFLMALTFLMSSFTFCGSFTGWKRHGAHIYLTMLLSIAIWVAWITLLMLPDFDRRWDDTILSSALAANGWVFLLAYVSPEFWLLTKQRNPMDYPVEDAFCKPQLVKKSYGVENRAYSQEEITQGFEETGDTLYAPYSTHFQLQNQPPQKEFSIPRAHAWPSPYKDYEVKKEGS
T7 sequence (Q9NZH0 29-403 limits assumed): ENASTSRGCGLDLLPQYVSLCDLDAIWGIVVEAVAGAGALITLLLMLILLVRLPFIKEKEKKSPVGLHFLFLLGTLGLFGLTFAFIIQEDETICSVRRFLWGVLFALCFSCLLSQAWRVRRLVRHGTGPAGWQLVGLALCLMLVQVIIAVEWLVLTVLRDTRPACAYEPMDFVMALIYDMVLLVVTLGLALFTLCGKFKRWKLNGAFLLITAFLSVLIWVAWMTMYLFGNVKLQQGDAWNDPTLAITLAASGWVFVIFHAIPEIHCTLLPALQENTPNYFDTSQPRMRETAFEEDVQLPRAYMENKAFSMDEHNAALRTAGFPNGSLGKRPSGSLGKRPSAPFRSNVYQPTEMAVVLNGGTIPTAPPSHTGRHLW

Binder | binding result (human GPRC5D protein [3]) | binding result (GPRC5A) | binding result (mouse GPRC5D) | binding result (GPRC5C) | binding result (monkey GPRC5D) | binding result (GPRC5B) | binding result (human GPRC5D protein [4]) | further results
Talquetamab (bispecific antibody, human IgG4 S228P, kappa, lambda, F234A L235A, Four polypeptide chains; also called benchmark; BM) heavy 1: not shown light 1: DIQMTQSPSSLSASVGDRVTITCKASQNVATHVGWYQQKPGKAPKRLIYSASYRYSGVPSRFSGSGSGTEFTLTISNLQPEDFATYYCQQYNRYPYTFGQGTKLEIKRTVAAPSVFIFPPSDEQLKSGTASVVCLLNNFYPREAKVQWKVDNALQSGNSQESVTEQDSKDSTYSLSSTLTLSKADYEKHKVYACEVTHQGLSSPVTKSFNRGEC heavy 2: EVQLVESGGGLVQPGGSLRLSCAASGFTFNTYAMNWVRQAPGKGLEWVARIRSKYNNYATYYAASVKGRFTISRDDSKNSLYLQMNSLKTEDTAVYYCARHGNFGNSYVSWFAYWGQGTLVTVSSASTKGPSVFPLAPCSRSTSESTAALGCLVKDYFPEPVTVSWNSGALTSGVHTFPAVLQSSGLYSLSSVVTVPSSSLGTKTYTCNVDHKPSNTKVDKRVESKYGPPCPPCPAPEAAGGPSVFLFPPKPKDTLMISRTPEVTCVVVDVSQEDPEVQFNWYVDGVEVHNAKTKPREEQFNSTYRVVSVLTVLHQDWLNGKEYKCKVSNKGLPSSIEKTISKAKGQPREPQVYTLPPSQEEMTKNQVSLTCLVKGFYPSDIAVEWESNGQPENNYKTTPPVLDSDGSFLLYSKLTVDKSRWQEGNVFSCSVMHEALHNHYTQKSLSLSLGK light 2: QTVVTQEPSLTVSPGGTVTLTCRSSTGAVTTSNYANWVQQKPGQAPRGLIGGTNKRAPGTPARFSGSLLGGKAALTLSGVQPEDEAEYYCALWYSNLWVFGGGTKLTVLGQPKAAPSVTLFPPSSEELQANKATLVCLISDFYPGAVTVAWKADSSPVKAGVETTTPSKQSNNKYAASSYLSLTPEQWKSHRSYSCQVTHEGSTVEKTVAPTECS | – | – | – | – | – | – | – | EC50 (T cell surface CD3 [1]): 5.35 nM; Top(MFI) (T cell surface CD3 [1]): 155000 MFI; CD25/CD4 EC50(nM), activation of T cells in the presence of MM.1S (T cell surface CD3 [2]): 0.0637 nM; CD25/CD8 EC50(nM), activation of T cells in the presence of MM.1S (T cell surface CD3 [2]): 0.0592 nM; CD69/CD4 EC50(nM), activation of T cells in the presence of MM.1S (T cell surface CD3 [2]): 0.046 nM; CD69/CD8 EC50(nM), activation of T cells in the presence of MM.1S (T cell surface CD3 [2]): 0.0329 nM
Chi-89 (antibody, human IgG1, kappa, V domains shown, Human-mouse chimeric antibody, human IgG1 heavy chain constant region and Kappa light chain constant region; also called chimeric antibody Chi-89) VH: EVQLVESGGDLVKPGGSLKLSCAASGFTFSSYGMSWVRQTPDKRLEWVATISSGGSYTYYPDSVKGRFTFSRDNAKNTLYLQMSSLKSEDTAMYYCVRQALRYHMDSWGQGTSVTVSS VL: DIVMTQSQKFMSTSVGDRVSVTCKASQNVGTNVAWYQQKPGQSPKALIYSASYRYSGVPDRFTGSGSGTDFTLTISNVQSEDLADFFCQQYYSYPWTFGGGTKLEIKR | binds | no binding (tested: 4.1-3000 ng/mL) | binds | no binding (tested: 4.1-3000 ng/mL) | binds | no binding (tested: 4.1-3000 ng/mL) | – | –
Chi-105 (antibody, human IgG1, kappa, V domains shown, Human-mouse chimeric antibody, human IgG1 heavy chain constant region and Kappa light chain constant region) VH: EVQLQQSGPELVKPGASVKMSCKASGYTFTDYYMNWVKQSHGKSLEWIGYIYPNNGGTGYNQRFKGKATLTADKSSSTAYMELRSLTSEDSAVYYCARWGGTRLGYYAMDYWGQGTSVTVSS VL: DIVMTQSQKFMSTSVGDRVSVTCKASQNVGTNVVWYQQKPGQSPKLLIYWASTRHTGVPDRFTGSGSGTDFTLTISNVQSEDLADYFCQQYSRYPYTFGGGTKLEIKR | binds | no binding (tested: 4.1-3000 ng/mL) | – | no binding (tested: 4.1-3000 ng/mL) | binds | no binding (tested: 4.1-3000 ng/mL) | – | –
Chi-128 (antibody, human IgG1, kappa, V domains shown, Human-mouse chimeric antibody, human IgG1 heavy chain constant region and Kappa light chain constant region) VH: DVQLVESGGGLVQPGGSRKVSCAASGFTFSSFGMHWVRQAPEKGLEWVAYISRGSSTIYYADTVKGRFTISRDNPKNTLFLQMTSLRSEDTAMYYCARSGYGSSSYYFDYWGQGTTLTVSS VL: ENVLTQSPAIMSASPREKVTMTCRASSSIRSSYLHWYQQKSGASPKLWIYSTSNLASGVPARFSGSGSGTSYSLTISSVEAEDAATYYCQQFSGYPLTFGGGTKLEIKR | binds | no binding (tested: 4.1-3000 ng/mL) | binds | no binding (tested: 4.1-3000 ng/mL) | binds | no binding (tested: 4.1-3000 ng/mL) | – | –
hu131-v2 (antibody, human IgG1, kappa, V domains shown, Humanized antibody of Chi-131) VH: EVQLVQSGAEVVKPGASVKMSCKASGYTFTNYVMHWVKQAPGQGLEWIGYFNPYNDGTNYNEKFKGRATLTSDTSANTAYMELSSLRSEDTAVYYCARGGVRRYFDVWGQGTTVTVSS VL: DIQMTQSPSSLSASVGDRVTITCRASQDIGSNLNWLQLGPGGAIKRLIYATFSLDSGVPSRFSGSRSGSDYTLTISSLQPEDFVDYYCQQYANFPPTFGGGTKVEIKR | – | – | – | – | – | – | binds | –

More lines, main results first:

binding result (human GPRC5D protein [3]) | binding result (GPRC5A) | binding result (mouse GPRC5D) | binding result (GPRC5C) | binding result (monkey GPRC5D) | binding result (GPRC5B) | binding result (human GPRC5D protein [4]) | Binder | further results
binds | no binding (tested: 4.1-3000 ng/mL) | binds | no binding (tested: 4.1-3000 ng/mL) | binds | no binding (tested: 4.1-3000 ng/mL) | – | Chi-131 (antibody, human IgG1, kappa, V domains shown, Human-mouse chimeric antibody, human IgG1 heavy chain constant region and Kappa light chain constant region; also called chimeric antibody Chi-131) VH: EVQLQQSGPELVKPGASVKMSCKASGYTFTNYVMHWVKQKPGQGLEWIGYFNPYNDGTNYNEKFKGKATLTSDKSSNTAYMELSSLTSEDSAVYYCARGGVRRYFDVWGAGTTVTVSS VL: DIQMTQSPSSLSASLGERVSLTCRASQDIGSNLNWLQLGPDGTIKRLIYATFSLDSGVPKRFSGSRSGSDYSLTISSLESEDFVDYYCQQYANFPPTFGGGTKLEIKR | –
binds | no binding (tested: 4.1-3000 ng/mL) | binds | no binding (tested: 4.1-3000 ng/mL) | binds | no binding (tested: 4.1-3000 ng/mL) | – | Chi-169 (antibody, human IgG1, kappa, V domains shown, Human-mouse chimeric antibody, human IgG1 heavy chain constant region and Kappa light chain constant region; also called chimeric antibody Chi-169) VH: EVKLVESGGGLVKPGASLKLSCAASGFTFSNYGMSWVRQTSDKRLEWVASISSGGGRIYYPDNVKGRFTISRENAKNTLYLQMSSLKSEDTALYYCTRHAMDNWGQGTSVIVSS VL: QIVLTQSPAIMSASPGEKVTMTCSASSSVSNMYWYQQKSGTSPKRWIYDTSKLASGVPARFSGSGSGTSYSLTISSMEAEDASTYYCQQWSSNPLTFGAGTTLELKR | –
– | – | – | – | – | – | binds | hu131-v1 (antibody, human IgG1, kappa, V domains shown, Humanized antibody of Chi-131) VH: EVQLVQSGAEVVKPGASVKMSCKASGYTFTNYVMHWVKQAPGQGLEWMGYFNPYNDGTNYNEKFKGRVTLTSDTSANTAYMELSSLRSEDTAVYYCARGGVRRYFDVWGQGTTVTVSS VL: DIQMTQSPSSLSASVGDRVTITCRASQDIGSNLNWLQLGPGGAIKRLIYATFSLDSGVPSRFSGSRSGSDYTLTISSLQPEDFVDYYCQQYANFPPTFGGGTKVEIKR | –
– | – | – | – | – | – | binds | hu131-v3 (antibody, human IgG1, kappa, V domains shown, Humanized antibody of Chi-131) VH: EVQLVQSGAEVVKPGASVKMSCKASGYTFTNYVMHWVKQAPGQGLEWIGYFNPYNDATNYNEKFKGRATLTSDTSANTAYMELSSLRSEDTAVYYCARGGVRRYFDVWGQGTTVTVSS VL: DIQMTQSPSSLSASVGDRVTITCRASQDIGSNLNWLQLGPGGAIKRLIYATFSLDSGVPSRFSGSRSGSDYTLTISSLQPEDFVDYYCQQYANFPPTFGGGTKVEIKR | –
– | – | – | – | – | – | binds | hu131-v4 (antibody, human IgG1, kappa, V domains shown, Humanized antibody of Chi-131) VH: EVQLVQSGAEVVKPGASVKMSCKASGYTFTNYVMHWVKQAPGQGLEWIGYFNPYNEGTNYNEKFKGRATLTSDTSANTAYMELSSLRSEDTAVYYCARGGVRRYFDVWGQGTTVTVSS VL: DIQMTQSPSSLSASVGDRVTITCRASQDIGSNLNWLQLGPGGAIKRLIYATFSLDSGVPSRFSGSRSGSDYTLTISSLQPEDFVDYYCQQYANFPPTFGGGTKVEIKR | –
– | – | – | – | – | – | binds | hu128-v1 (antibody, human IgG1, kappa, V domains shown) VH: EVQLVESGGGLVQPGGSRRVSCAASGFTFSSFGMHWVRQAPGKGLEWVAYISRGSSTIYYADTVKGRFTISRDNAKNSLYLQMNSLRAEDTAVYYCARSGYGSSSYYFDYWGQGTTVTVSS VL: EIVLTQSPATLSASPGERATMSCRASSSIRSSYLHWYQQKPGQSPRLWIYSTSNLASGVPARFSGSGSGTDYTLTISSLEPEDAAVYYCQQFSGYPLTFGGGTKVEIKR | –
